# According to the RNAGym collection of RNA variant scans (doi:10.7554/elife.80360):
# B1: CPEB3 Ribozyme (parent)
# chain: GGGGGCCACAGCAGAAGCGUUCACGUCGCGGCCCCUGUCAGAUUCUGGUGAAUCUGCGAAUUCUGCUGU
# Variants of: B1
# Assay: self-cleavage, relative activity (ratio to wild type); higher = more cleavage; co-transcriptional
row,Variant,self-cleavage
1,A10U C54A,0.902
2,A10U C54G,0.958
3,A10U A40G,0.951
4,C9A U43C,1.03
5,A10C U55G,0.799
6,A10U C27U,0.547
7,A10U C27A,0.272
8,C9G U53A,0.98
9,A10G G31C,0.322
10,A10C C66U,0.974
11,A10C C66G,0.892
12,A10C C66A,0.862
13,C9A U69A,1.06
14,C9A U20C,0.197
15,A10U C57A,0.273
16,A10C A23G,0.94
17,C9G A40U,0.827
18,C9G A40C,0.715
19,C9U G68C,1.03
20,A10C G56U,0.936
21,A10C G56A,0.989
22,C9G G11C,0.721
23,C9G G11U,0.922
24,C9A C34G,0.995

row,Variant,self-cleavage
1,A10U C29A,0.722
2,C9A G25C,0.228
3,A10G U61A,0.6
4,C9G C66A,0.831
5,A10C C33U,0.98
6,C9G A16C,0.548
7,C9A U49G,1.04
8,C9A U49A,1.03
9,A10G G47U,0.919
10,C9G A15U,0.911
11,C9G A15G,0.988
12,A10U A16G,0.924
13,A10U A16U,0.877
14,A10C G50C,0.996
15,A10C G50U,1
16,C9U G65A,0.965
17,C9U G17C,0.32
18,C9U G17U,0.832
19,A10G C35G,0.496
20,A10G C35U,0.892
21,A10G C35A,0.197
22,A10G C33G,0.854
23,A10G C33U,0.953
24,C9A G65U,0.844

row,Variant,self-cleavage
1,C9A G65A,0.955
2,C9A G17C,0.204
3,A10G U64G,0.398
4,A10G A13U,0.13
5,A10G A13G,0.233
6,C9U U26A,0.929
7,C9U U26G,0.942
8,A10C G11C,0.764
9,C9G U55A,0.929
10,C9U C27G,0.203
11,C9U A40C,0.841
12,A10G U46A,0.91
13,A10C C45G,1.05
14,C9U G37U,0.432
15,C9U G37C,0.224
16,A10G U55G,0.36
17,C9G G17U,0.68
18,C9G G17A,0.66
19,A10G G30A,0.96
20,A10G G30U,0.704
21,C9U U62C,0.966
22,C9U U62A,0.997
23,A10G G28C,0.169
24,A10C G17U,0.464

row,Variant,self-cleavage
1,C9U C66G,0.921
2,A10C U38G,0.248
3,A10C U38A,0.869
4,A10U A60G,0.953
5,C9A U55C,0.982
6,C9A U55G,0.874
7,A10C G47C,1
8,C9G G19C,0.133
9,C9G G19U,0.643
10,A10G G58U,0.947
11,A10C A52U,0.985
12,A10C A52C,0.986
13,A10U A15C,0.746
14,C9U G56U,0.971
15,C9A U67A,1.03
16,A10C U36A,0.226
17,A10C U36C,0.966
18,A10C U36G,0.246
19,C9A G47C,1
20,C9G G30A,0.975
21,C9G G30C,0.948
22,C9G G30U,0.759
23,A10C U44G,1.02
24,C9A U36A,0.315

row,Variant,self-cleavage
1,C9U C39U,0.935
2,A10C G28C,0.102
3,C9U U53C,0.931
4,A10G C29U,0.126
5,A10G C29A,0.324
6,C9U G19C,0.143
7,C9U G11U,0.945
8,C9U U44G,1.06
9,C9U U20G,0.17
10,C9G C34U,1.01
11,C9G C34A,0.953
12,A10U A51U,1.04
13,A10U A51G,0.955
14,A10G G25A,0.0673
15,A10G G25U,0.132
16,C9G C35A,0.267
17,C9A U62C,0.931
18,C9A U62G,0.943
19,C9G G47A,1.05
20,C9G G47U,1.04
21,A10C U53G,0.927
22,C9G C24G,0.608
23,A10U C66A,0.845
24,A10U C66G,0.924

row,Variant,self-cleavage
1,C9A C66U,1.02
2,A10C U64A,0.779
3,A10C U64C,0.769
4,A10C G58A,0.961
5,A10U C63U,0.969
6,C9U C45G,1.07
7,C9U C34U,1.01
8,C9G U49C,1.01
9,C9G U49A,1
10,C9G U49G,0.954
11,C9A G48A,1.01
12,C9G C63G,0.799
13,A10G G65U,0.303
14,A10G G65A,0.337
15,C9G C18U,0.935
16,C9U G48C,1.02
17,C9U U21A,0.932
18,C9U U21G,0.801
19,A10G A52G,1.01
20,C9U A51U,1
21,C9U G25A,0.306
22,C9U G30A,0.972
23,C9U G30C,0.981
24,C9G G58A,1.01

row,Variant,self-cleavage
1,A10C A42C,0.961
2,A10C A42G,0.896
3,C9G A52U,1.04
4,C9G A52C,0.985
5,C9U C57G,0.334
6,C9G U64G,0.936
7,A10C C54A,0.896
8,A10C C54G,0.993
9,A10C C54U,1.02
10,A10G U20A,0.0584
11,A10C U21G,0.535
12,A10C U21C,0.905
13,A10C C34G,0.868
14,C9G C45A,1.01
15,C9G C45U,0.998
16,A10G A23C,0.939
17,C9U U61C,0.866
18,C9G C22A,0.189
19,C9U,1.01
20,C9G,1.01
21,A10C C18U,0.882
22,A10C C18A,0.12
23,A10G C27U,0.613
